Measurements published in PMC8551160, “Structure of PDE3A–SLFN12 complex and structure-based design for a potent apoptosis inducer of tumor cells” (Nature Communications, 2021).

Molecular target: the molecule itself
Experiment: cryo-EM structure; PDE3A-SLFN12 (K213R) complex purified from nauclefine-treated HeLa cells; single-particle, C2 symmetry, 3.2 Å

B1: phosphodiesterase 3A (PDE3A), endogenous (enzyme, human (endogenous in HeLa), UniProt Q14432 1-1141, looked up)
chain: MAVPGDAARVRDKPVHSGVSQAPTAGRDCHHRADPASPRDSGCRGCWGDLVLQPLRSSRKLSSALCAGSLSFLLALLVRLVRGEVGCDLEQCKEAAAAEEEEAAPGAEGGVFPGPRGGAPGGGARLSPWLQPSALLFSLLCAFFWMGLYLLRAGVRLPLAVALLAACCGGEALVQIGLGVGEDHLLSLPAAGVVLSCLAAATWLVLRLRLGVLMIALTSAVRTVSLISLERFKVAWRPYLAYLAGVLGILLARYVEQILPQSAEAAPREHLGSQLIAGTKEDIPVFKRRRRSSSVVSAEMSGCSSKSHRRTSLPCIPREQLMGHSEWDHKRGPRGSQSSGTSITVDIAVMGEAHGLITDLLADPSLPPNVCTSLRAVSNLLSTQLTFQAIHKPRVNPVTSLSENYTCSDSEESSEKDKLAIPKRLRRSLPPGLLRRVSSTWTTTTSATGLPTLEPAPVRRDRSTSIKLQEAPSSSPDSWNNPVMMTLTKSRSFTSSYAISAANHVKAKKQSRPGALAKISPLSSPCSSPLQGTPASSLVSKISAVQFPESADTTAKQSLGSHRALTYTQSAPDLSPQILTPPVICSSCGRPYSQGNPADEPLERSGVATRTPSRTDDTAQVTSDYETNNNSDSSDIVQNEDETECLREPLRKASACSTYAPETMMFLDKPILAPEPLVMDNLDSIMEQLNTWNFPIFDLVENIGRKCGRILSQVSYRLFEDMGLFEAFKIPIREFMNYFHALEIGYRDIPYHNRIHATDVLHAVWYLTTQPIPGLSTVINDHGSTSDSDSDSGFTHGHMGYVFSKTYNVTDDKYGCLSGNIPALELMALYVAAAMHDYDHPGRTNAFLVATSAPQAVLYNDRSVLENHHAAAAWNLFMSRPEYNFLINLDHVEFKHFRFLVIEAILATDLKKHFDFVAKFNGKVNDDVGIDWTNENDRLLVCQMCIKLADINGPAKCKELHLQWTDGIVNEFYEQGDEEASLGLPISPFMDRSAPQLANLQESFISHIVGPLCNSYDSAGLMPGKWVEDSDESGDTDDPEEEEEEAPAPNEEETCENNESPKKKTFKRRKIYCQITQHLLQNHKMWKKVIEEEQRLAGIENQSLDQTPQSHSSEQIQAIKEEEEEKGKPRGEEIPTQKPDQ
notes: PDE3A, human, endogenous in HeLa cells; appeared as its full length in the purification; only the catalytic domain K669-Q1102 is resolved in the cryo-EM maps; the purified band is called full length; It is a homodimer in the complex structures; source: endogenous, HeLa; in lysate (co-IP); co-purified with tagged SLFN12 by Flag-HA tandem pull-down (cryo-EM)
- stoichiometry N: 2
